Laboratory results taken from patent publication US20050260657A1 (UNIVERSITY OF TOKYO, published 2005).

B2: MBP-ERp44 (maltose binding protein fused ERp44) (other, mouse, UniProt Q9D1Q6 30-406, looked up, not shown: large carriers)
chain: EIASLDSENIDEILNNADVALVNFYADWCRFSQMLHPIFEEASDVIKEEYPDKNQVVFARVDCDQHSDIAQRYRISKYPTLKLFRNGMMMKREYRGQRSVKALADYIRQQKSNPVHEIQSLDEVTNLDRSKRNIIGYFEQKDSENYRVFERVASILHDDCAFLSAFGDLSKPERYNGDNVIYKPPGRSAPDMVYLGSMTNFDVTYNWIQDKCVPLVREITFENGEELTEEGLPFLILFHMKDDTESLEIFQNEVARQLISEKGTINFLHADCDKFRHPLLHIQKTPADCPVIAIDSFRHMYVFGDFKDVLIPGKLKQFVFDLHSGKLHREFHHGPDPTDTAPGEQDQDVASSPPESSFQKLAPSEYRYTLLRDRDEL

What was measured:
[1] = molecular target: MBP (maltose binding protein alone) (UniProt P0AEX9 27-392 = MBP); assay: GST pull-down, pH 5.2, 4 mM Ca2+
[2] = molecular target: B2; assay: GST pull-down, acid buffer with Ca2+
[3] = molecular target: IP3R1 of mouse cerebellar microsomes in planar lipid bilayer (mouse, UniProt P11881 1-2749); assay: cell-based or functional assay
Sequence of IP3R1 of mouse cerebellar microsomes in planar lipid bilayer (P11881 whole entry, the tested form may be a part): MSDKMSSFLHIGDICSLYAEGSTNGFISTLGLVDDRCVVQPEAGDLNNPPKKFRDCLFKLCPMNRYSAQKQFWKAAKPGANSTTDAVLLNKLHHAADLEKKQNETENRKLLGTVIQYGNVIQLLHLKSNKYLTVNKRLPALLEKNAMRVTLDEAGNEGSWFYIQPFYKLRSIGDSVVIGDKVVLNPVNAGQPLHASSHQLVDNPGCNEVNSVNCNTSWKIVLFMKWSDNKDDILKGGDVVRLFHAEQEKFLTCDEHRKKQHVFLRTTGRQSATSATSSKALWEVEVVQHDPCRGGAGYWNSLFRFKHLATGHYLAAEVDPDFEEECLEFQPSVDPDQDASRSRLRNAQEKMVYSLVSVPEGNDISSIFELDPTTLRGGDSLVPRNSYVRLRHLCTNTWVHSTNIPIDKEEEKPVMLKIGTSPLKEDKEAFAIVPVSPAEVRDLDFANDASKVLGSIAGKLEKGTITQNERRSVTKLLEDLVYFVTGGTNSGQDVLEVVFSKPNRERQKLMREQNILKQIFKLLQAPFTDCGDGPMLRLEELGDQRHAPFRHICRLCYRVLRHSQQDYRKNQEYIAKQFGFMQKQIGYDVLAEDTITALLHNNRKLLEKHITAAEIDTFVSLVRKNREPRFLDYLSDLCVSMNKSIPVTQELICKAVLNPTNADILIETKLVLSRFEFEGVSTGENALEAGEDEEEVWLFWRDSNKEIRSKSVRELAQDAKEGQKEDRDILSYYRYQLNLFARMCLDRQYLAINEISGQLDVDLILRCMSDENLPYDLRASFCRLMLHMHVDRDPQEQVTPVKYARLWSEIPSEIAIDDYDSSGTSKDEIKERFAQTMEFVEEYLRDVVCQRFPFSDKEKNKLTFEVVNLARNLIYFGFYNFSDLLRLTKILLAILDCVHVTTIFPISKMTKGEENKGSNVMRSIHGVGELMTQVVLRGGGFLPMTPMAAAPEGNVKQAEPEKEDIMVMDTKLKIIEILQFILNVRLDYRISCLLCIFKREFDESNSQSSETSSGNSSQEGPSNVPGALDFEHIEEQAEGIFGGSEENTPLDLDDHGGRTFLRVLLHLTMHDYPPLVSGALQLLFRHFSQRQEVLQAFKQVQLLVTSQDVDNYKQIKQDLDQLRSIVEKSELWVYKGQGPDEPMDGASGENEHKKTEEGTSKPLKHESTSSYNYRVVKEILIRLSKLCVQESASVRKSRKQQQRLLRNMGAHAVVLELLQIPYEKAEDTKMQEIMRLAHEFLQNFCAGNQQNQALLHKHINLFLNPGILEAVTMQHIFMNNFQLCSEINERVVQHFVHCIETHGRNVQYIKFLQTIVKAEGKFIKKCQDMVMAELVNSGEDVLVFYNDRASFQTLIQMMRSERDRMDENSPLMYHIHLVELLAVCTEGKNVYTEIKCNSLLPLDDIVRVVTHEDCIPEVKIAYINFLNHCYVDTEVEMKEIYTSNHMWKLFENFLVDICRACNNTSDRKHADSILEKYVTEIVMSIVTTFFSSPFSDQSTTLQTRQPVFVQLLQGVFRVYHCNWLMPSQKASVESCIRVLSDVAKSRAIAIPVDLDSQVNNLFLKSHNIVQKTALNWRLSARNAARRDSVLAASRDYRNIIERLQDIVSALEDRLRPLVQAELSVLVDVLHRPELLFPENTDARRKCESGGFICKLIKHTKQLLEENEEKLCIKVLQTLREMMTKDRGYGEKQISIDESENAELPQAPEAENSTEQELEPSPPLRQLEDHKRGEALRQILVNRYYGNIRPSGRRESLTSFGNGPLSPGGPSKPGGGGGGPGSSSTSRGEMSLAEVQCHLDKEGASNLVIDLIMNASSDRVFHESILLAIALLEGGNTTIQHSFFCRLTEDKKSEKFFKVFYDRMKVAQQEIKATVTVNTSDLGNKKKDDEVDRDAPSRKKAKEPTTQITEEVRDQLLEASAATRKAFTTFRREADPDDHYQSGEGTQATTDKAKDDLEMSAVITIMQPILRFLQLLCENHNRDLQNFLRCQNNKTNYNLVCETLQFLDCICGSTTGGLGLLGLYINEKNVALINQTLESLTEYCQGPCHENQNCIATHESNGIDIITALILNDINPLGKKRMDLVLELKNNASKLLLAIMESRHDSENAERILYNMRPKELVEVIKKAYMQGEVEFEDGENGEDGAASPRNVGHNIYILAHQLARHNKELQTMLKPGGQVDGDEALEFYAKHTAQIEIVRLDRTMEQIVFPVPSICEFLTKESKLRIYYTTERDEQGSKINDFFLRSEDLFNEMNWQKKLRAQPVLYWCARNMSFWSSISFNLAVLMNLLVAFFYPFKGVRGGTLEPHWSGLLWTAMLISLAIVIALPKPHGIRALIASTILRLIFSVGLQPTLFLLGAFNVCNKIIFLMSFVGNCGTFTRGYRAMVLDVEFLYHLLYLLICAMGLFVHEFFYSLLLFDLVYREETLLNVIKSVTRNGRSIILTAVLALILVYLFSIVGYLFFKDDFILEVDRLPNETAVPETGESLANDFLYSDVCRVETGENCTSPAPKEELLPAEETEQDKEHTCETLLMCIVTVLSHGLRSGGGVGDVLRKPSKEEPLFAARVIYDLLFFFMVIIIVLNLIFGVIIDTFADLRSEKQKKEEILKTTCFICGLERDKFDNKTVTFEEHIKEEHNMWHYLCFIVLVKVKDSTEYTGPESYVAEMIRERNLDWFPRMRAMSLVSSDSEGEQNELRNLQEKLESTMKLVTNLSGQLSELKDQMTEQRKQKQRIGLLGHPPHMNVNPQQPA

[4] = molecular target: T1, GFP-IP3R1 (IP3R1 fused N-terminally with green fluorescent protein) (UniProt P11881 1-2749); assay: co-immunoprecipitation from COS-7 cells exposed to ATP (activator of purinergic receptors), DSP crosslink
T1 construct: Expressed in COS-7 or DT40-TKO cells; also called GFP-IP3R1-N; not shown: green fluorescent protein

[5] = molecular target: T2, IP3R1 (inositol 1,4,5-trisphosphate receptor type 1), untagged, expressed in cells (mouse, UniProt P11881 1-2749); assay: interaction in transfected cells; data not shown
T2 construct: whole, on cells; ER membrane channel; species is printed for the DT40-KMN60 line, not for the COS-7 vector; also called mouse IP3R1 in DT40-KMN60 cells

B1: GST-1L3V (glutathione S-transferase fused L3V domain of IP3R1) (other, not shown: a dimerising Fc or GST; large carriers; small tags and cut ends)
chain: KDDFILEVDRLPNETAVPETGESLANDFLYSDVCRVETGENCTSPAPKEELLPAEETEQDKEHTCE
notes: Expressed in E. coli, purified on GSH-Sepharose; also called GST-L3V
binding result [1]: no binding
binding result [2]: binds

B2
Single-channel open probability (IC50) [3]: 1000 nM

B3: HA-ERp44 (haemagglutinin A epitope-tagged ERp44) (other, mouse, UniProt Q9D1Q6 30-406, looked up, not shown: small tags and cut ends)
chain: EIASLDSENIDEILNNADVALVNFYADWCRFSQMLHPIFEEASDVIKEEYPDKNQVVFARVDCDQHSDIAQRYRISKYPTLKLFRNGMMMKREYRGQRSVKALADYIRQQKSNPVHEIQSLDEVTNLDRSKRNIIGYFEQKDSENYRVFERVASILHDDCAFLSAFGDLSKPERYNGDNVIYKPPGRSAPDMVYLGSMTNFDVTYNWIQDKCVPLVREITFENGEELTEEGLPFLILFHMKDDTESLEIFQNEVARQLISEKGTINFLHADCDKFRHPLLHIQKTPADCPVIAIDSFRHMYVFGDFKDVLIPGKLKQFVFDLHSGKLHREFHHGPDPTDTAPGEQDQDVASSPPESSFQKLAPSEYRYTLLRDRDEL
notes: whole, on cells; tagged vectors made by PCR
fold increase of GFP-IP3R1 co-precipitated with HA-ERp44 after the treatment against untreated cells [4]: ~2 fold

B4: ERp44-C58S (other, UniProt Q9D1Q6 30-406, looked up)
chain: EIASLDSENIDEILNNADVALVNFYADWSRFSQMLHPIFEEASDVIKEEYPDKNQVVFARVDCDQHSDIAQRYRISKYPTLKLFRNGMMMKREYRGQRSVKALADYIRQQKSNPVHEIQSLDEVTNLDRSKRNIIGYFEQKDSENYRVFERVASILHDDCAFLSAFGDLSKPERYNGDNVIYKPPGRSAPDMVYLGSMTNFDVTYNWIQDKCVPLVREITFENGEELTEEGLPFLILFHMKDDTESLEIFQNEVARQLISEKGTINFLHADCDKFRHPLLHIQKTPADCPVIAIDSFRHMYVFGDFKDVLIPGKLKQFVFDLHSGKLHREFHHGPDPTDTAPGEQDQDVASSPPESSFQKLAPSEYRYTLLRDRDEL
notes: whole, on cells
binding result [5]: binds
